Experimental findings from article PMC10658506 (2023) are described below.

Where a chain is given by its changes, count along the chain named.

By Kd is commonly meant the free concentration of one partner at which half of the binding sites on the other are occupied at equilibrium, for simple one-to-one binding. Read a high Kd as a looser complex.

This assay concerns the target T1, soluble human IL-11 receptor extracellular domain, his-tagged (human, UniProt Q14626 24-370).
T1 chain: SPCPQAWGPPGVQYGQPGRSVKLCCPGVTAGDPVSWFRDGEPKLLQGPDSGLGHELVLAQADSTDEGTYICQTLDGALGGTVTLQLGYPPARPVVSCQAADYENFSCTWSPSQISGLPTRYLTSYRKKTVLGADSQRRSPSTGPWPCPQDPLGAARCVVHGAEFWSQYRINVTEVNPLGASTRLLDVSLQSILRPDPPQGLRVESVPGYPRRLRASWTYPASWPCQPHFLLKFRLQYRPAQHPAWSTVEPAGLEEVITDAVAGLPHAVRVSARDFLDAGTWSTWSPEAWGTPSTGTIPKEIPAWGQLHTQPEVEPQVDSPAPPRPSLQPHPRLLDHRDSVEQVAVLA
Kind of assay: FACS. On the technique in general: A flow cytometer gives signals particle by particle.

B1: yeast-displayed IL-11 IPR (ligand)
chain: PGPPPGPPRVSPDPRAELDSIVLLTRSLLADTRQLAAQLRDKFPADGDHNLDSLPTPAMSARALGALQLPGVLTRLRADLLSYLRHVQWLRRAGGSSLKTLEPELGTLQARLDRLLRRLQLLMSRLALPQPPPDPPAPPLAPPSSAWGGIRAAHAILGGLHLTLDWAVRGLLLLKTRL
In the case of B1, the equilibrium dissociation constant (Kd) is 220 pM.

B2: yeast-displayed IL-11 GIPRDM (ligand)
chain: B1 chain with D19G, G71D, V72M
B2: the Kd was 290 pM.

B3: yeast-displayed wild-type human IL-11 (ligand)
chain: B1 chain with I21T, P57L, R62G
The molecule B3 showed a Kd of 8200 pM.

B4: yeast-displayed IL-11 GIPRD (ligand)
chain: B1 chain with D19G, G71D
Regarding B4, the Kd is 190 pM.
